B1: Hammerhead Ribozyme (parent)
chain: ACCGGAUGUGCUUUCCGGUCUGAUGAGUCCGUGAGGACGAAACAG

Variants of: B1
Assay: self-cleavage, relative activity (ratio to wild type); higher = more cleavage; co-transcriptional

Q: With ACCGGAUGUGCUUUCCGGUCUGAUGAGGCGGUGAGGACGAAACAG [U28G C30G] as the variant, how does the self-cleavage read?
A: 0.315

Q: Which self-cleavage does the source give for ACCGGAUGUGCUUUUCGGUCUGAUGAGUCCGUGAGGACGAAAAAG [C15U C43A] here?
A: 0.413

Q: With ACCGAAUGUGCUUUCAGGUCUGAUGAGUCCGUGAGGACGAAACAG [G5A C16A] as the variant, how does the self-cleavage read?
A: 1.56

Q: Which self-cleavage does the source give for ACCGGAUGUGCUUUCGGGUCCGAUGAGUCCGUGAGGACGAAACAG [C16G U21C] here?
A: 0.354

Q: With ACCGGAUGUGCUUUCCGGUCUGAUGAGUGCGUGAGGACCAAACAG [C29G G39C] as the variant, how does the self-cleavage read?
A: 0.317

Q: For ACCGGAUGUGCUUUCCGGUCUGGUGAGCCCGUGAGGACGAAACAG [A23G U28C], which self-cleavage is on record?
A: 0.327

Q: Which self-cleavage does the source give for ACCGGAAGUGCUUUCCGGUCUGAUGAGUCCGUGAGAACGAAACAG [U7A G36A] here?
A: 0.681

Q: Which self-cleavage does the source give for ACCGGACGUGCUUUCCGGUCUGCUGAGUCCGUGAGGACGAAACAG [U7C A23C] here?
A: 0.356

Q: For ACUGGAUGUGCUUUCCGGUCUGGUGAGUCCGUGAGGACGAAACAG [C3U A23G], which self-cleavage is on record?
A: 0.331

Q: Which self-cleavage does the source give for CCCGGAUGUGCUUUCCGCUCUGAUGAGUCCGUGAGGACGAAACAG [A1C G18C] here?
A: 0.399

Q: For CCCGGAUGUGCUUUCCGAUCUGAUGAGUCCGUGAGGACGAAACAG [A1C G18A], which self-cleavage is on record?
A: 0.434

Q: For ACCGUAUGUGCUUUCCGGUCUGAUGAGUCCGUGAGGACGAAACAC [G5U G45C], which self-cleavage is on record?
A: 0.443

Q: With ACCGGAUGUGCUUUCCGCUCUGAUGAGUGCGUGAGGACGAAACAG [G18C C29G] as the variant, how does the self-cleavage read?
A: 0.302

Q: For GCCGGAUGUGCUUUCCGGUCUGAUGAGUCCGUGAGGACCAAACAG [A1G G39C], which self-cleavage is on record?
A: 0.394

Q: Which self-cleavage does the source give for ACCGGAUGUGCUUUCGUGUCUGAUGAGUCCGUGAGGACGAAACAG [C16G G17U] here?
A: 0.681

Q: For ACCGGAUGUGCUUUCCGGUCUGAUGAGCCCGUUAGGACGAAACAG [U28C G33U], which self-cleavage is on record?
A: 0.973

Q: With ACCGGAAGUGCUUUCCGGUCUGAUGAGUCCGUCAGGACGAAACAG [U7A G33C] as the variant, how does the self-cleavage read?
A: 1.44

Q: For ACCGGAUGUGCCUUCCGGUCUGAGGAGUCCGUGAGGACGAAACAG [U12C U24G], which self-cleavage is on record?
A: 1.13

Q: Which self-cleavage does the source give for ACCGGAUGUGCAUUCCGGUCUGAUGAUUCCGUGAGGACGAAACAG [U12A G27U] here?
A: 0.412

Q: Which self-cleavage does the source give for ACCGGAUGUGCUUUCCGGUCUGAUGAGAUCGUGAGGACGAAACAG [U28A C29U] here?
A: 0.774

Q: With ACCGGAUGUACUUUCCGGUCUGAUGAGUCCGUGAGGACGAAUCAG [G10A A42U] as the variant, how does the self-cleavage read?
A: 0.38

Q: Which self-cleavage does the source give for ACCGGAUGUGCGUUCCGGUCUGAUGAGUCCGUGAGGACCAAACAG [U12G G39C] here?
A: 0.424

Q: For ACCGGAUGUGCAUUCCGGUCUGAUGAGUCCGUGUGGACGAAACAG [U12A A34U], which self-cleavage is on record?
A: 1

Q: For ACCGGAUGUACUUUCGGGUCUGAUGAGUCCGUGAGGACGAAACAG [G10A C16G], which self-cleavage is on record?
A: 0.812

Q: Which self-cleavage does the source give for ACCGGUUGUGCUUUCCGGUCUGAUGAGACCGUGAGGACGAAACAG [A6U U28A] here?
A: 0.377

Q: With CCCGGAUGUGCUUUCCCGUCUGAUGAGUCCGUGAGGACGAAACAG [A1C G17C] as the variant, how does the self-cleavage read?
A: 0.391

Q: Which self-cleavage does the source give for CCCGGAUGUGCUUUCCUGUCUGAUGAGUCCGUGAGGACGAAACAG [A1C G17U] here?
A: 0.346

Q: For ACCGGAAGUGCUUUCCGGUCUGAUGAGUCCGUGAGGAUGAAACAG [U7A C38U], which self-cleavage is on record?
A: 1.27

Q: For ACCGGAGGUGCUUUCCGGUCUGAUGAGUCCGUGAGGACGAAACCG [U7G A44C], which self-cleavage is on record?
A: 0.411

Q: With ACCGGAUGUGUUUUCCGGUCUGAUGAGUCCGUGUGGACGAAACAG [C11U A34U] as the variant, how does the self-cleavage read?
A: 0.724

Q: For ACCGGAUGUGCUUCCCGGUCUGAUGAGUCCGCGAGGACGAAACAG [U14C U32C], which self-cleavage is on record?
A: 0.61

Q: Which self-cleavage does the source give for ACCGGACGUGCUUUCCCGUCUGAUGAGUCCGUGAGGACGAAACAG [U7C G17C] here?
A: 0.314

Q: With ACCGGAUGUGCUUUCCGGUCUGAUGAGUCCGUGAGGACGGAUCAG [A40G A42U] as the variant, how does the self-cleavage read?
A: 0.253

Q: For ACCGGAUGUGCUUGCCGGUCUGAAGAGUCCGUGAGGACGAAACAG [U14G U24A], which self-cleavage is on record?
A: 1.03

Q: With ACCGGAUGUGCUUUCCGGUCAGAUGAGUCCGUUAGGACGAAACAG [U21A G33U] as the variant, how does the self-cleavage read?
A: 0.55

Q: With AUCGGAUGUGCUUUCCGGUCUGAUGAGUCCGUGAGGACGAAACAC [C2U G45C] as the variant, how does the self-cleavage read?
A: 0.868

Q: Which self-cleavage does the source give for ACCGGAUGUGCUUUCCGGUCUGAAGAGUCCGUGAGGACUAAACAG [U24A G39U] here?
A: 0.464

Q: For ACCGGAUGUACUUCCCGGUCUGAUGAGUCCGUGAGGACGAAACAG [G10A U14C], which self-cleavage is on record?
A: 0.97

Q: With ACCGGAGGUGCUUUCCGGUCUGAUGAGUCCGUUAGGACGAAACAG [U7G G33U] as the variant, how does the self-cleavage read?
A: 1.32

Q: With ACCGGCUGUGCUUUCCGGUCUUAUGAGUCCGUGAGGACGAAACAG [A6C G22U] as the variant, how does the self-cleavage read?
A: 0.39

Q: For ACCGGAUGUGCUUUCCGGUCUGAUGAGUCGGUGAGGACGAAUCAG [C30G A42U], which self-cleavage is on record?
A: 0.227

Q: With ACCGGAUGUUCUUUCCGGUCUGAUGAGUCCCUGAGGACGAAACAG [G10U G31C] as the variant, how does the self-cleavage read?
A: 0.998

Q: With AUCCGAUGUGCUUUCCGGUCUGAUGAGUCCGUGAGGACGAAACAG [C2U G4C] as the variant, how does the self-cleavage read?
A: 0.397

Q: With ACCGGAUGUGCUUUCCGGUCUGAUGAGUCCGUGGCGACGAAACAG [A34G G35C] as the variant, how does the self-cleavage read?
A: 0.771

Q: With ACCGGAUGUGCUUUCCGGUCUGAUGAGUCCGUGAGGACGAAAGAC [C43G G45C] as the variant, how does the self-cleavage read?
A: 0.378

Q: With ACCGGAUGGGCUUUCCGGUCUGAUGAGUCCGUGAGGACGCAACAG [U9G A40C] as the variant, how does the self-cleavage read?
A: 0.423

Q: Which self-cleavage does the source give for AGCGGAUGUGCUUUCCGGUCUGAUGAGUCCGUGAGGACGAAACUG [C2G A44U] here?
A: 0.323

Q: Which self-cleavage does the source give for ACCGGAUAUGCUUUCCGGUCUGAUGAGUCCGUGAGGACGAAUCAG [G8A A42U] here?
A: 0.297

Q: For ACCGGAUGUGCUUUGCGGUCUGAUGAGUCCGUGAGGACGAAUCAG [C15G A42U], which self-cleavage is on record?
A: 0.328

Q: Which self-cleavage does the source give for ACCGGAUGUGUUUUCCGGUCUGAUGAGUGCGUGAGGACGAAACAG [C11U C29G] here?
A: 0.646

Q: For ACCGGAUGUGCUUUCCGGUCUGAUGAAUCCGUGAGGACGAAACAC [G27A G45C], which self-cleavage is on record?
A: 0.378

Q: For ACCGCAUUUGCUUUCCGGUCUGAUGAGUCCGUGAGGACGAAACAG [G5C G8U], which self-cleavage is on record?
A: 0.693

Q: With ACCGGAUGUGCUUUCCGUUCUGAUGAGUCCAUGAGGACGAAACAG [G18U G31A] as the variant, how does the self-cleavage read?
A: 0.905

Q: For ACCGGAUGUGCUUUCCGUUCUGAUGAGUCCUUGAGGACGAAACAG [G18U G31U], which self-cleavage is on record?
A: 0.781

Q: With ACCGGAUGUGCUUUCCGGUCUUAUAAGUCCGUGAGGACGAAACAG [G22U G25A] as the variant, how does the self-cleavage read?
A: 0.269

Q: With ACCGGAUGUGCUUUCCGGUCUGAUGCGGCCGUGAGGACGAAACAG [A26C U28G] as the variant, how does the self-cleavage read?
A: 0.46

Q: For ACCGGAUGUGCUUUCCGGUCUGAAGAGUCCGUAAGGACGAAACAG [U24A G33A], which self-cleavage is on record?
A: 1
